Entries after “also recorded” stand apart in the source; their conditions may differ.
B1: sFlt1: soluble variant of the VEGF receptor encoded by the Flt1 gene (protein, listed as Homo sapiens)
chain: MVSYWDTGVLLCALLSCLLLTGSSSGSKLKDPELSLKGTQHIMQAGQTLHLQCRGEAAHKWSLPEMVSKESERLSITKSACGRNGKQFCSTLTLNTAQANHTGFYSCKYLAVPTSKKKETESAIYIFISDTGRPFVEMYSEIPEIIHMTEGRELVIPCRVTSPNITVTLKKFPLDTLIPDGKRIIWDSRKGFIISNATYKEIGLLTCEATVNGHLYKTNYLTHRQTNTIIDVQISTPRPVKLLRGHTLVLNCTATTPLNTRVQMTWSYPDEKNKRASVRRRIDQSNSHANIFYSVLTIDKMQNKDKGLYTCRVRSGPSFKSVNTSVHIYDKAFITVKHRKQQVLETVAGKRSYRLSMKVKAFPSPEVVWLKDGLPATEKSARYLTRGYSLIIKDVTEEDAGNYTILLSIKQSNVFKNLTATLIVNVKPQIYEKAVSSFPDPALYPLGSRQILTCTAYGIPQPTIKWFWHPCNHNHSEARCDFCSNNEESFILDADSNMGNRIESITQRMAIIEGKNKMASTLVVADSRISGIYICIASNKVGTVGRNISFYITDVPNGFHVNLEKMPTEGEDLKLSCTVNKFLYRDVTWILLRTVNNRTMHYSISKQKMAITKEHSITLNLTIMNVSLQDSGTYACRARNVYTGEEILQKKEITIRGEHCNKKAVFSRISKFKSTRNDCTTQSNVKH

Assays:
[1] = tested on: mice; experiment: Exercise tolerance tests; assay type: in vivo
[2] = tested on: C57B16 mice following left pneumonectomy; experiment: Compensatory lung growth after left pneumonectomy (lung volume by water displacement); assay type: in vivo; conditions: for lung growth: compensatory lung growth after pneumonectomy
Experimental: (§1) C57B16 mice were randomized to receive daily intraperitoneal injection of either saline or soluble fms-like tyrosine kinase 1 (sFlt1) at a dose of 20 mcg/kg following left pneumonectomy. On post-operative day 4, mice underwent pulmonary function studies and were subsequently euthanized for lung volume measurement. Lung volume was determined by water displacement method. […] This therapy can potentially improve lung growth and pulmonary functions in patients suffering from severe pulmonary hypoplasia.
(§2) sFlt1 was administered to mice according to the experimental design depicted in FIG. 6. […] The dose response to sFlt1 was investigated (FIG. 8) and, in mice, 20 mcg/kg sFlt1 was the optimal dosing regimen (FIG. 9).

[3] = tested on: HIF-2α; experiment: HIF-2α levels after sFlt1 administration (incl. immunohistochemistry); assay type: in vivo, mice; conditions: FIG. 11, 12
Excerpt: FIG. 12 depicts immunohistochemical measurements of HIF-2α levels.

[4] = tested on: mice after 70% partial hepatectomy; experiment: Liver regeneration after 70% partial hepatectomy; assay type: in vivo; conditions: 10, 20, or 50 ug/kg daily intraperitoneal vs saline, POD 4
Experimental: Mice underwent 70% partial hepatectomy and were randomized to receive saline (control) or one of 3 doses of Flt1 (10, 20, or 50 ug/kg) via intraperitoneal injection. Treatment was performed daily and mice were euthanized on post-operative day (POD) 4 for organ harvest. Liver samples were weighed and normalized against body weight.

[5] = tested on: liver and spleen; parameters: species or system mice; conditions: mouse, in vivo
Experimental: LW/BW: liver weight/body weight, SW/BW: spleen weight/body weight.
as §1

[6] = tested on: C57B16 mice following left pneumonectomy; experiment: Pulmonary function studies after left pneumonectomy; assay type: in vivo
Experimental: as §1, §2

[7] = tested on: VEGF; experiment: VEGF levels after sFlt1 administration; assay type: in vivo, mice; conditions: FIG. 11
[8] = sFlt1 20 mcg/kg daily intraperitoneal vs saline, post-operative day 4

| Molecule | effect of HIF-2α inhibition on sFlt1 effect on exercise tolerance ([1]; PT-2385 given with sFlt1, FIG. 16, 17) | effect of HIF-2α inhibition on sFlt1-induced lung growth ([2]; PT-2385 given with sFlt1, FIG. 15) | levels of HIF-2α [3] | liver weight normalized against body weight [4] | baseline activity in exercise tolerance tests ([1]; FIG. 16) | lung growth [2] | lung growth ([2]; listed as soluble VEGF receptor) | optimal dosing regimen (dose response) ([2]; in mice, FIG. 9) | lung volume (LV/BW: lung volume/body weight) [2, 8] | organ mass of liver (LW/BW: liver weight/body weight) [5] | organ mass of spleen (SW/BW: spleen weight/body weight) [5] | inspiratory capacity (IC/BW) [6, 8] | pulmonary compliance [6, 8] | pulmonary elastance [6, 8] | pulmonary mechanics ([6]; sFlt1 at 20 mcg/kg, FIG. 10) | levels of VEGF [7] |
| --- | --- | --- | --- | --- | --- | --- | --- | --- | --- | --- | --- | --- | --- | --- | --- | --- |
| CS(=O)(=O)c1ccc(Oc2cc(F)cc(C#N)c2)c2c1[C@H](O)C(F)(F)C2 [PT-2385, reference compound] | blunt the effects of sFlt1 | blunt the effects of sFlt1 |  |  |  |  |  |  |  |  |  |  |  |  |  |  |
| B1 |  |  | unexpectedly increases | no difference in liver weight | increased baseline activity | increases lung growth; also recorded: accelerated lung growth | accelerated compensatory lung growth | 0.02 mg/kg | significantly higher lung volume; also recorded: increases lung volume | does not change | does not change | significantly higher; also recorded: improve; also recorded: increases inspiratory capacity | improves | improves | improved pulmonary mechanics | unexpectedly increases |
